Positions count from the first letter of the chain named. Names may count otherwise. “And” between values parts separate entries of the source, which are not always exact repeats. Equal values may be shown once. Read-outs that look alike come from different tables or passages of the source.
Tests used:
synthetic oligopeptides [1] = target: T1, synthetic oligopeptides (Escherichia coli, UniProt P0AE18, M206T/Q233G/Y168G); format: biochemical; details: dodecapeptides, in vitro
T1 construct: […]; made in house; host or cells: E. coli BL21(DE3)
T1 sequence (P0AE18 2-264 Y168G/M206T/Q233G): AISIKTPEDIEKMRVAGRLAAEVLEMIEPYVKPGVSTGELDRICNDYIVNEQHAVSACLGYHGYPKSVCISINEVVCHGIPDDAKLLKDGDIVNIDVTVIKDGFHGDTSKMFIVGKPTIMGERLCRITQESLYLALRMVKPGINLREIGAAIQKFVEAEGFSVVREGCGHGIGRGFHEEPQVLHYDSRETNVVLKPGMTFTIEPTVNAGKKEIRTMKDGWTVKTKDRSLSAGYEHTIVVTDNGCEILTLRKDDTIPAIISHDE
Procedure: (§1) The oligopeptide substrates used in this experiment were synthesized on the 432A Synergy peptide synthesizer (Applied Biosystems, Foster, Calif., USA). The enzymatic activity of purified MetAP was assayed as described by Ben-Bassat et al., 1987. Briefly, the diluted MetAP enzyme in 10 μl was added to 90 μl of the substrate solution containing 4 mM oligopeptide, 0.1 M potassium phosphate buffer, pH 7.5 and 0.2 mM CoCl2, incubated at 37° C. for 10 min and stopped in boiling water for 2 min. After addition of 0.9 ml of color development mixture containing 0.2 mg of L-amino acid oxidase, 0.03 mg of horseradish peroxidase and 0.2 mg of o-dianisidine in 0.1 M Tris-HCl, pH 7.4, the mixtures were incubated for 10 min at 37° C., and the optical density at 440 nm was recorded. One unit of activity is defined as 1 μmol of amino acids produced per min under the assay conditions and the pure Met was used as standard. The N-terminal residues of the MetAP-treated oligopeptide were further verified by Edman degradation.

synthetic oligopeptides [2] = format: biochemical; details: for Specific activity (unit/mg): 4 mM oligopeptide, pH 7.5, 37° C.
Procedure: as §1

Met-tagged onconase = assay: In vivo catalytic activity of MetAPs co-expressed with Met-tagged onconase in E. coli BL21(DE3); N-terminus by Edman degradation; format: cell-based; details: in vivo in E. coli
Excerpt: Residues Tyr168, Met206 and Gln233 in the putative substrate-binding site of E. coli MetAP were mutated by site-directed mutagenesis based on the crystal structure and amino acid sequence alignment of MetAPs (Ben-Bassat et al., 1987; Lowther et al., 1999; Walker et al., 1999). For the expression of secretory ribonucleases, the ribonuclease gene was cloned and expressed as described previously (Huang et al., 1998).
Most of the co-expressed target protein, e.g., onconase or RC-RNase L1, existed in insoluble cell lysate. They were denatured, renatured and purified as described previously (Liao et al., 2003). The purified ribonucleases were stored in 20 mM sodium phosphate, pH 7.0, for pyroglutamate formation at the N-terminus. Alternatively, the ribonuclease secreted into culture medium through pe1B system was concentrated and purified to electrophoretical homogeneity at a yield of 1˜5 mg per 1 liter of culture (Huang et al., 1998).

[3] = E. coli MetAP mutations; Chiu et al. 1999; cited from earlier work

B1: MetAP-GTG (protein)
chain: T1 sequence (P0AE18 2-264 Y168G/M206T/Q233G)
Synthetic oligopeptides [1]
  Specific activity on […] as % of that for […]: 43%
Synthetic oligopeptides [2]; oligopeptides with Gln at the penultimate residue
  In vitro catalytic activity: the most activity
Synthetic oligopeptides [2]; substrate MADY (SEQ ID NO:7)
  Specific activity (unit/mg): 1.68 ± 0.51 unit/mg
Synthetic oligopeptides [2]; substrate MADYLT (SEQ ID NO:8)
  Specific activity (unit/mg): 2.50 ± 0.42 unit/mg
Synthetic oligopeptides [2]; substrate MQDYLT (SEQ ID NO:9)
  Specific activity (unit/mg): 0.23 ± 0.01 unit/mg
Synthetic oligopeptides [2]; substrate […] (SEQ ID NO:5)
  Specific activity (unit/mg): 9.80 ± 0.26 unit/mg
Synthetic oligopeptides [2]; substrate […] (SEQ ID NO:6)
  Specific activity (unit/mg): 4.24 ± 0.14 unit/mg
Met-tagged onconase; substrate MAA-Onc
  Catalytic activity (%): percent of penultimate residue removed: 30%
  Catalytic activity (%): removal of N-terminal Met: 100%
Met-tagged onconase; substrate MAG-Onc
  Catalytic activity (%): percent of penultimate residue removed: 16%
  Catalytic activity (%): removal of N-terminal Met: 86%
Met-tagged onconase; substrate MAL-Onc
  Catalytic activity (%): removal of N-terminal Met: 100%
Met-tagged onconase; substrate MAM-Onc
  Catalytic activity (%): removal of N-terminal Met: 96%
Met-tagged onconase; substrate MDD-Onc
  Catalytic activity (%): removal of N-terminal Met: 27%
Met-tagged onconase; substrate MED-Onc
  Catalytic activity (%): removal of N-terminal Met: 35%
Met-tagged onconase; substrate MFA-Onc
  Catalytic activity (%): percent of penultimate residue removed: 100%
  Catalytic activity (%): removal of N-terminal Met: 36%
Met-tagged onconase; substrate MFD-Onc
  Catalytic activity (%): removal of N-terminal Met: 23%
Met-tagged onconase; substrate MIA-Onc
  Catalytic activity (%): removal of N-terminal Met: 96%
Met-tagged onconase; substrate MID-Onc
  Catalytic activity (%): removal of N-terminal Met: 94%
Met-tagged onconase; substrate MKA-Onc
  Catalytic activity (%): removal of N-terminal Met: 9%
Met-tagged onconase; substrate MKD-Onc
  Catalytic activity (%): removal of N-terminal Met: 7%
Met-tagged onconase; substrate MLA-Onc
  Catalytic activity (%): percent of penultimate residue removed: 80%
  Catalytic activity (%): removal of N-terminal Met: 100%
Met-tagged onconase; substrate MLD-Onc
  Catalytic activity (%): removal of N-terminal Met: 90% and 98%
Met-tagged onconase; substrate MLG-Onc
  Catalytic activity (%): percent of penultimate residue removed: 46%
  Catalytic activity (%): removal of N-terminal Met: 87%
Met-tagged onconase; substrate MLH-Onc
  Catalytic activity (%): percent of penultimate residue removed: 51%
  Catalytic activity (%): removal of N-terminal Met: 100%
Met-tagged onconase; substrate MLL-Onc
  Catalytic activity (%): percent of penultimate residue removed: 55%
  Catalytic activity (%): removal of N-terminal Met: 93%
Met-tagged onconase; substrate MLM-Onc
  Catalytic activity (%): removal of N-terminal Met: 100%
Met-tagged onconase; substrate MLN-Onc
  Catalytic activity (%): percent of penultimate residue removed: 68%
  Catalytic activity (%): removal of N-terminal Met: 100%
Met-tagged onconase; substrate MLP-Onc
  Catalytic activity (%): percent of penultimate residue removed: 95%
  Catalytic activity (%): removal of N-terminal Met: 55%
Met-tagged onconase; substrate MLS-Onc
  Catalytic activity (%): percent of penultimate residue removed: 69%
  Catalytic activity (%): removal of N-terminal Met: 87%
Met-tagged onconase; substrate MLT-Onc
  Catalytic activity (%): percent of penultimate residue removed: 54%
  Catalytic activity (%): removal of N-terminal Met: 72%
Met-tagged onconase; substrate MLV-Onc
  Catalytic activity (%): percent of penultimate residue removed: 69%
  Catalytic activity (%): removal of N-terminal Met: 97%
Met-tagged onconase; substrate MQD-Onc
  Catalytic activity (%): removal of N-terminal Met: 97%
Met-tagged onconase; substrate MQM-Onc
  Catalytic activity (%): percent of penultimate residue removed: 100%
  Catalytic activity (%): removal of N-terminal Met: 100%
  Catalytic activity (%): value in parenthesis after Met and Gln removal (third cleavage site, second Met): 73%
Met-tagged onconase; substrate MQN-Onc
  Catalytic activity (%): percent of penultimate residue removed: 90%
  Catalytic activity (%): removal of N-terminal Met: 83%
Met-tagged onconase; substrate MQP-Onc
  Catalytic activity (%): percent of penultimate residue removed: 100%
  Catalytic activity (%): removal of N-terminal Met: 54%
Met-tagged onconase; substrate MQT-Onc
  Catalytic activity (%): percent of penultimate residue removed: 79%
  Catalytic activity (%): removal of N-terminal Met: 86%
Met-tagged onconase; substrate MRA-Onc
  Catalytic activity (%): removal of N-terminal Met: 8%
Met-tagged onconase; substrate MRD-Onc
  Catalytic activity (%): removal of N-terminal Met: 4%
Met-tagged onconase; substrate MWA-Onc
  Catalytic activity (%): percent of penultimate residue removed: 89%
  Catalytic activity (%): removal of N-terminal Met: 100%
Met-tagged onconase; substrate MWD-Onc
  Catalytic activity (%): removal of N-terminal Met: 78%
Met-tagged onconase; substrate MWD-Onc, listed as GTG
  Catalytic activity (%): removal of N-terminal Met: much higher activities
Met-tagged onconase; substrate MYA-Onc
  Catalytic activity (%): removal of N-terminal Met: 22%
Met-tagged onconase; substrate MYD-Onc
  Catalytic activity (%): removal of N-terminal Met: 20%
Met-tagged onconase; substrate MYD-Onc, listed as GTG
  Catalytic activity (%): removal of N-terminal Met: much higher activities

B2: W221L: E. coli MetAP mutation in the putative substrate-binding pocket (protein, UniProt P0AE18 2-264, looked up, variant W221L)
Methionine aminopeptidase: T1 sequence (P0AE18 2-264 Y168G/M206T/Q233G) with G167Y, T205M, W220L, G232Q
[3]
  Catalytic activity, % activity of the wild type: 27%
